Each binder was assayed against T1, HLA-A*02:01 (human) (assay: UV peptide exchange ELISA).
T1 construct: monomers captured on streptavidin plates; also called MHC class I
In short: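 Read-out is an ELISA on the UV-exchange reaction: monomers, diluted 100-fold, are captured on streptavidin and the β2m light chain is detected with 2 μg/ml HRP antibody and TMB at 450 nm.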
For NLLETKLQL, the peptide exchange yield was 50 to 75%.
AVGPASILKEV showed a peptide exchange yield of 20 to 50%.
In the case of SLLKEPQKVQL, the peptide exchange yield is reported as 20 to 50%.
SLLPGNLVEKV gave a peptide exchange yield of 50 to 75%.
In the case of VLLSLLEKV, the peptide exchange yield is reported as 20 to 50%.
GLIEDYEALL showed a peptide exchange yield of 50 to 75%.
Work on ILVEADSLWVV yielded a peptide exchange yield of 50 to 75%.
KINDTIYEV showed a peptide exchange yield of 50 to 75%.
Work on SLAPGDVVRQV yielded a peptide exchange yield of 20 to 50%.
KLLGKVETA showed a peptide exchange yield of 50 to 75%.
For LLINSVFHV, the peptide exchange yield was 50 to 75%.
TLLVKVFSV was tested, and the peptide exchange yield was 50 to 75%.
Binder LLQELVLFL has a peptide exchange yield of 50 to 75%.
KIFDIDEAEEGV was tested, and the peptide exchange yield was 20 to 50%.
NVPDSFNEV showed a peptide exchange yield of 50 to 75%.
Work on SLIEKVTQL yielded a peptide exchange yield of 50 to 75%.
RLLAQVPGL showed a peptide exchange yield of 50 to 75%.
ILLEHGADPNL was tested, and the peptide exchange yield was 50 to 75%.
Work on KLPPPPPQA yielded a peptide exchange yield of 50 to 75%.
ILAQEQLVVGV was tested, and the peptide exchange yield was 50 to 75%.
KLIDDQDISISL gave a peptide exchange yield of 50 to 75%.
KLAEGLDIQL gave a peptide exchange yield of 50 to 75%.
For LLLNEEALAQI, the peptide exchange yield was 50 to 75%.
FLAEDPKVTL was tested, and the peptide exchange yield was 50 to 75%.
SLFDGFADGLGV gave a peptide exchange yield of 50 to 75%.
Work on GLNDRSDAV yielded a peptide exchange yield of 20 to 50%.
YLASDEITTV gave a peptide exchange yield of 50 to 75%.
LLDPNVKSIFV was tested, and the peptide exchange yield was 50 to 75%.
VLIANLEKL was tested, and the peptide exchange yield was no less than 75%.
Work on FLDPYCSASV yielded a peptide exchange yield of 20 to 50%.
With KLLEVSDDPQV the peptide exchange yield was 50 to 75%.
For FLLEDDIHVS, the peptide exchange yield was 50 to 75%.
ALMERTGYSMV gave a peptide exchange yield of 50 to 75%.
QLCDLNAEL was tested, and the peptide exchange yield was 50 to 75%.
In the case of SLNHFTHSV, the peptide exchange yield is reported as 50 to 75%.
In the case of FMIDASVHPTL, the peptide exchange yield is reported as 50 to 75%.
ALLPASGQIAL gave a peptide exchange yield of 50 to 75%.
Work on LLLLDTVTMQV yielded a peptide exchange yield of 20 to 50%.
SLFGNSGILENV showed a peptide exchange yield of 50 to 75%.
SLSEIVPCL showed a peptide exchange yield of 50 to 75%.
SLWPSPEQL was tested, and the peptide exchange yield was 20 to 50%.
LLIGHLERV was tested, and the peptide exchange yield was 50 to 75%.
With ALQPEPIKV the peptide exchange yield was 20 to 50%.
In the case of FLLQHVQEL, the peptide exchange yield is reported as 50 to 75%.
For YLDPALELGPRNV, the peptide exchange yield was 50 to 75%.
FIFSEKPVFV showed a peptide exchange yield of 50 to 75%.
For AVMESIQGV, the peptide exchange yield was 50 to 75%.
For SLVESHLSDQLTL, the peptide exchange yield was 50 to 75%.
In the case of GLLEKLTAI, the peptide exchange yield is reported as 50 to 75%.
KLLEATSAV showed a peptide exchange yield of 20 to 50%.
Binder AMLEKNYKL has a peptide exchange yield of no less than 75%.
In the case of SLMEDQVLQL, the peptide exchange yield is reported as 50 to 75%.
With YLRSVGDGETV the peptide exchange yield was 50 to 75%.
ALNDCIYSV was tested, and the peptide exchange yield was 50 to 75%.
In the case of FLAKDFNFL, the peptide exchange yield is reported as 50 to 75%.
Binder YVLEDLEVTV has a peptide exchange yield of 20 to 50%.
For KLYSVVSQL, the peptide exchange yield was 20 to 50%.
QLVPALAKV showed a peptide exchange yield of 20 to 50%.
Work on YLLHEKLNL yielded a peptide exchange yield of 50 to 75%.
With KLAKQPETV the peptide exchange yield was 50 to 75%.
SLIDKLYNI gave a peptide exchange yield of 20 to 50%.
For GLLGEKTQDLIGV, the peptide exchange yield was 50 to 75%.
YLYNNMIAKI gave a peptide exchange yield of 50 to 75%.
KMWEELPEVV gave a peptide exchange yield of 50 to 75%.
For KLWTGGLDNTV, the peptide exchange yield was 50 to 75%.
ALITEVVRL was tested, and the peptide exchange yield was 20 to 50%.
For FLFDTKPLIV, the peptide exchange yield was 50 to 75%.
With GLSDGNPSL the peptide exchange yield was 20 to 50%.
With SVAPNLPAV the peptide exchange yield was 50 to 75%.
AMATESILHFA showed a peptide exchange yield of 50 to 75%.
FLVEKQPPQV showed a peptide exchange yield of 50 to 75%.
ALLEDSCHYL gave a peptide exchange yield of 50 to 75%.
VMFRTPLASV was tested, and the peptide exchange yield was 20 to 50%.
